For this assay, the target named is soluble CD8αα (human). Briefly: SPR.

Turning to “HLA-A*02:01-NLV monomer (WT) (from UniProt P61769 21-119) (peptide-MHC)”, the Kd (in general, the free concentration of one partner at which half of the binding sites on the other are occupied at equilibrium, for simple one-to-one binding) stood at 228 µM.

The substance “soluble MR1-β2m-Ac-6-FP monomer (WT) (from UniProt Q95460 23-292; P61769 21-119) (complex)” displayed a Kd of 177 µM.

The values above are taken from paper PMC9424912.
